Experimental findings from the supplement of paper PMC11908140 are described below.

The labels stand for the following.
B1: library; numbered along this chain (parent)
chain: MRKPRAAVGSGHRKQAASQEGRQKHAKNNSQAKPSACDGLARQPEEVVLQASVSSYHLFRDVAEVTAFRGSLLSWYDQEKRDLPWRRRAEDEMDLDRRAYAVWVSEVMLQQTQVATVINYYTGWMQKWPTLQDLASASLEEVNQLWAGLGYYSRGRRLQEGARKVVEELGGHMPRTAETLQQLLPGVGRYTAGAIASIAFGQATGVVDGNVARVLCRVRAIGADPSSTLVSQQLWGLAQQLVDPARPGDFNQAAMELGATVCTPQRPLCSQCPVESLCRARQRVEQEQLLASGSLSGSPDVEECAPNTGQCHLCLPPSEPWDQTLGVVNFPRKASRKPPREESSATCVLEQPGALGAQILLVQRPNSGLLAGLWEFPSVTWEPSEQLQRKALLQELQRWAGPLPATHLRHLGEVVHTFSHIKLTYQVYGLALEGQTPVTTVPPGARWLTQEEFHTAAVSTAMKKVFRVYQGQQPGTCMGSKRSQVSSPCSRKKPRMGQQVLDNFFRSHISTDAHSLNSAAQ

Variants of B1 are the subject of this data set. Description: 8OG:A repair function score (normalized; synonymous = 0, nonsense = -1) (normalized log-likelihood score); higher = more repair activity (WT-like). The note with it: with 8OG:A DNA repair reporter (GFP) in HEK-293 MUTYH KO cells. On the procedure:
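Saturation mutagenesis (NNN codon scan) of the MUTYH cDNA (521-aa nuclear isoform NM_001048174.1 / NP_001041639), stably expressed under doxycycline induction in HEK-293 MUTYH knockout cells. Cells were co-transfected with an 8OG:A-bearing GFP repair reporter plus mCherry and sorted 72 h later into GFP+ and GFP− bins, three replicates per tile. The Rosace log2 enrichment (GFP+ vs GFP−) was converted per tile to a normalized function score with synonymous variants centered at 0 and nonsense variants (codons 1-471) at -1; low-abundance variants were removed.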
In the case of MRKPRAAVGSGHRKQAASQEGRQKHAKNNSQAKPSACDGLARQPEEVVLQASVSSYHLFRDVAEVTAFRGSLLSWYDQEKRDLPWRRRAEDEMDLDRRAYAVWVSEVMLQQTQVATVINYYTGWMQKWPTLQDLASASLEEVNQLWAGLGTYSRGRRLQEGARKVVEELGGHMPRTAETLQQLLPGVGRYTAGAIASIAFGQATGVVDGNVARVLCRVRAIGADPSSTLVSQQLWGLAQQLVDPARPGDFNQAAMELGATVCTPQRPLCSQCPVESLCRARQRVEQEQLLASGSLSGSPDVEECAPNTGQCHLCLPPSEPWDQTLGVVNFPRKASRKPPREESSATCVLEQPGALGAQILLVQRPNSGLLAGLWEFPSVTWEPSEQLQRKALLQELQRWAGPLPATHLRHLGEVVHTFSHIKLTYQVYGLALEGQTPVTTVPPGARWLTQEEFHTAAVSTAMKKVFRVYQGQQPGTCMGSKRSQVSSPCSRKKPRMGQQVLDNFFRSHISTDAHSLNSAAQ [Y151T], the “8OG:A repair function score” value is -0.587. Under MRKPRAAVGSGHRKQAASQEGRQKHAKNNSQAKPSACDGLARQPEEVVLQASVSSYHLFRDVAEVTAFRGSLLSWYDQEKRDLPWRRRAEDEMDLDRRAYAVWVSEVMLQQTQVATVINYYTGWMQKWPTLQDLASASLEEVNQLWAGLGQYSRGRRLQEGARKVVEELGGHMPRTAETLQQLLPGVGRYTAGAIASIAFGQATGVVDGNVARVLCRVRAIGADPSSTLVSQQLWGLAQQLVDPARPGDFNQAAMELGATVCTPQRPLCSQCPVESLCRARQRVEQEQLLASGSLSGSPDVEECAPNTGQCHLCLPPSEPWDQTLGVVNFPRKASRKPPREESSATCVLEQPGALGAQILLVQRPNSGLLAGLWEFPSVTWEPSEQLQRKALLQELQRWAGPLPATHLRHLGEVVHTFSHIKLTYQVYGLALEGQTPVTTVPPGARWLTQEEFHTAAVSTAMKKVFRVYQGQQPGTCMGSKRSQVSSPCSRKKPRMGQQVLDNFFRSHISTDAHSLNSAAQ [Y151Q] stands -0.672; under MRKPRAAVGSGHRKQAASQEGRQKHAKNNSQAKPSACDGLARQPEEVVLQASVSSYHLFRDVAEVTAFRGSLLSWYDQEKRDLPWRRRAEDEMDLDRRAYAVWVSEVMLQQTQVATVINYYTGWMQKWPTLQDLASASLEEVNQLWAGLGRYSRGRRLQEGARKVVEELGGHMPRTAETLQQLLPGVGRYTAGAIASIAFGQATGVVDGNVARVLCRVRAIGADPSSTLVSQQLWGLAQQLVDPARPGDFNQAAMELGATVCTPQRPLCSQCPVESLCRARQRVEQEQLLASGSLSGSPDVEECAPNTGQCHLCLPPSEPWDQTLGVVNFPRKASRKPPREESSATCVLEQPGALGAQILLVQRPNSGLLAGLWEFPSVTWEPSEQLQRKALLQELQRWAGPLPATHLRHLGEVVHTFSHIKLTYQVYGLALEGQTPVTTVPPGARWLTQEEFHTAAVSTAMKKVFRVYQGQQPGTCMGSKRSQVSSPCSRKKPRMGQQVLDNFFRSHISTDAHSLNSAAQ [Y151R], -0.389; under MRKPRAAVGSGHRKQAASQEGRQKHAKNNSQAKPSACDGLARQPEEVVLQASVSSYHLFRDVAEVTAFRGSLLSWYDQEKRDLPWRRRAEDEMDLDRRAYAVWVSEVMLQQTQVATVINYYTGWMQKWPTLQDLASASLEEVNQLWAGLGSYSRGRRLQEGARKVVEELGGHMPRTAETLQQLLPGVGRYTAGAIASIAFGQATGVVDGNVARVLCRVRAIGADPSSTLVSQQLWGLAQQLVDPARPGDFNQAAMELGATVCTPQRPLCSQCPVESLCRARQRVEQEQLLASGSLSGSPDVEECAPNTGQCHLCLPPSEPWDQTLGVVNFPRKASRKPPREESSATCVLEQPGALGAQILLVQRPNSGLLAGLWEFPSVTWEPSEQLQRKALLQELQRWAGPLPATHLRHLGEVVHTFSHIKLTYQVYGLALEGQTPVTTVPPGARWLTQEEFHTAAVSTAMKKVFRVYQGQQPGTCMGSKRSQVSSPCSRKKPRMGQQVLDNFFRSHISTDAHSLNSAAQ [Y151S], -1.29. For MRKPRAAVGSGHRKQAASQEGRQKHAKNNSQAKPSACDGLARQPEEVVLQASVSSYHLFRDVAEVTAFRGSLLSWYDQEKRDLPWRRRAEDEMDLDRRAYAVWVSEVMLQQTQVATVINYYTGWMQKWPTLQDLASASLEEVNQLWAGLGVYSRGRRLQEGARKVVEELGGHMPRTAETLQQLLPGVGRYTAGAIASIAFGQATGVVDGNVARVLCRVRAIGADPSSTLVSQQLWGLAQQLVDPARPGDFNQAAMELGATVCTPQRPLCSQCPVESLCRARQRVEQEQLLASGSLSGSPDVEECAPNTGQCHLCLPPSEPWDQTLGVVNFPRKASRKPPREESSATCVLEQPGALGAQILLVQRPNSGLLAGLWEFPSVTWEPSEQLQRKALLQELQRWAGPLPATHLRHLGEVVHTFSHIKLTYQVYGLALEGQTPVTTVPPGARWLTQEEFHTAAVSTAMKKVFRVYQGQQPGTCMGSKRSQVSSPCSRKKPRMGQQVLDNFFRSHISTDAHSLNSAAQ [Y151V] the value was -0.583. With MRKPRAAVGSGHRKQAASQEGRQKHAKNNSQAKPSACDGLARQPEEVVLQASVSSYHLFRDVAEVTAFRGSLLSWYDQEKRDLPWRRRAEDEMDLDRRAYAVWVSEVMLQQTQVATVINYYTGWMQKWPTLQDLASASLEEVNQLWAGLGPYSRGRRLQEGARKVVEELGGHMPRTAETLQQLLPGVGRYTAGAIASIAFGQATGVVDGNVARVLCRVRAIGADPSSTLVSQQLWGLAQQLVDPARPGDFNQAAMELGATVCTPQRPLCSQCPVESLCRARQRVEQEQLLASGSLSGSPDVEECAPNTGQCHLCLPPSEPWDQTLGVVNFPRKASRKPPREESSATCVLEQPGALGAQILLVQRPNSGLLAGLWEFPSVTWEPSEQLQRKALLQELQRWAGPLPATHLRHLGEVVHTFSHIKLTYQVYGLALEGQTPVTTVPPGARWLTQEEFHTAAVSTAMKKVFRVYQGQQPGTCMGSKRSQVSSPCSRKKPRMGQQVLDNFFRSHISTDAHSLNSAAQ [Y151P], the “8OG:A repair function score” value is -1.25.
